B1: αAΔ70–88 deletion mutant of human αA-crystallin (natural protein, UniProt P02489 1-173, looked up)
chain: MDVTIQHPWFKRTLGPFYPSRLFDQFFGEGLFEYDLLPFLSSTISPYYRQSLFRTVLDSGISEVRSDRDVQDDFVEIHGKHNERQDDHGYISREFHRRYRLPSNVDQSALSCSLSADGMLTFCGPKIQTGLDATHAERAIPVSREEKPTSAPSS
B2: αAΔ70–76 deletion mutant of human αA-crystallin (natural protein, UniProt P02489 1-173, looked up)
chain: MDVTIQHPWFKRTLGPFYPSRLFDQFFGEGLFEYDLLPFLSSTISPYYRQSLFRTVLDSGISEVRSDRDVKHFSPEDLTVKVQDDFVEIHGKHNERQDDHGYISREFHRRYRLPSNVDQSALSCSLSADGMLTFCGPKIQTGLDATHAERAIPVSREEKPTSAPSS

Molecular target: the molecule itself
Assay: SEC-MALS

| Protein | binding result |
| --- | --- |
| B1 | binds |
| B2 | binds |

Reference: PMC5018465 (Biochimica et biophysica acta, 2016)
